From patent US20090105152A1
Numbered stars: 1 amine (or outer) side, 2 acyl side, 3 side chain; on linkers, the order of the positions; unused ones are H or OH. Square brackets hold non-standard residues; d marks the D form. Primed or numbered codes have the meaning given here. Azetidine3carboxylic = O=C(C1CN([*:1])C1)[*:2]; Pic(3) = 3-piperidinecarboxylic acid; Arg(Me) = CNC(=N)NCCC[C@H](N)C(=O)O; Hyp = O=C(O)[C@@H]1C[C@@H](O)CN1; NMeA = CN[C@@H](C)C(=O)O; Thz = O=C(O)[C@@H]1CSCN1; dNMeA = CN[C@H](C)C(=O)O; 2Abz = Nc1ccccc1C(=O)O; Aib = CC(C)(N)C(=O)O; azaGly = NNC(=O)O; Sar = CNCC(=O)O

Biological target: human OT7T175 (metastin receptor) (human) (UniProt Q969F8)
Sequence (Q969F8 whole entry L364H): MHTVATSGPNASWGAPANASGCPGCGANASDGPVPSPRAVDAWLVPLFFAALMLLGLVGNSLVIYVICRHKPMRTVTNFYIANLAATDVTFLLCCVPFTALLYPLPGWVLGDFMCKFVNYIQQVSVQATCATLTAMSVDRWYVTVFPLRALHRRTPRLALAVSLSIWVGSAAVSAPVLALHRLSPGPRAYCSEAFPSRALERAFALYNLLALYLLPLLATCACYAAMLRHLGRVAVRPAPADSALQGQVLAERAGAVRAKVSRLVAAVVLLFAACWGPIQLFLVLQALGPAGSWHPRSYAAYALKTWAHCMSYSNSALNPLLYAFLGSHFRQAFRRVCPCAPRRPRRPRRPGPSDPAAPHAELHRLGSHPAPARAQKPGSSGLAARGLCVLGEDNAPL
Experiment: cell-based or functional assay

Binder	intracellular Ca ion level-increasing activity [specific activity to Metastin (1-54)] (relative to Metastin (1-54))
Ac-[dY][Pic(3)]NTF[azaGly]L[Arg(Me)]W-NH2 [des(1)-Ac-[D-Tyr2,Pic(3)3,Thr5,AzaGly7,Arg(Me)9,Trp10]MS10]	2.2
Ac-[dY][Hyp]NTF[azaGly]L[Arg(Me)]W-NH2 [des(1)-Ac-[D-Tyr2,Hyp3,Thr5,AzaGly7,Arg(Me)9,Trp10]MS10]	2
Ac-[dY][Thz]NTF[azaGly]L[Arg(Me)]W-NH2 (SMILES CNC(=N)NCCC[C@H](NC(=O)[C@H](CC(C)C)NC(=O)NNC(=O)[C@H](Cc1ccccc1)NC(=O)[C@@H](NC(=O)[C@H](CC(N)=O)NC(=O)[C@@H]1CSCN1C(=O)[C@@H](Cc1ccc(O)cc1)NC(C)=O)[C@@H](C)O)C(=O)N[C@@H](Cc1c[nH]c2ccccc12)C(N)=O) [des(1)-Ac-[D-Tyr2,Thz3,Thr5,AzaGly7,Arg(Me)9,Trp10]MS10]	1.4
Ac-[dY][NMeA]NTF[azaGly]L[Arg(Me)]W-NH2 (SMILES CNC(=N)NCCC[C@H](NC(=O)[C@H](CC(C)C)NC(=O)NNC(=O)[C@H](Cc1ccccc1)NC(=O)[C@@H](NC(=O)[C@H](CC(N)=O)NC(=O)[C@H](C)N(C)C(=O)[C@@H](Cc1ccc(O)cc1)NC(C)=O)[C@@H](C)O)C(=O)N[C@@H](Cc1c[nH]c2ccccc12)C(N)=O) [des(1)-Ac-[D-Tyr2,NMeAla3,Thr5,AzaGly7,Arg(Me)9,Trp10]MS10]	2.7
Ac-[dY]GNTF[azaGly]L[Arg(Me)]W-NH2 (SMILES CNC(=N)NCCC[C@H](NC(=O)[C@H](CC(C)C)NC(=O)NNC(=O)[C@H](Cc1ccccc1)NC(=O)[C@@H](NC(=O)[C@H](CC(N)=O)NC(=O)CNC(=O)[C@@H](Cc1ccc(O)cc1)NC(C)=O)[C@@H](C)O)C(=O)N[C@@H](Cc1c[nH]c2ccccc12)C(N)=O) [des(1)-Ac-[D-Tyr2,Gly3,Thr5,AzaGly7,Arg(Me)9,Trp10]MS10]	3.1
Ac-[dY][dW]NTF[azaGly]L[dR]W-NH2 (SMILES CC(=O)N[C@H](Cc1ccc(O)cc1)C(=O)N[C@H](Cc1c[nH]c2ccccc12)C(=O)N[C@@H](CC(N)=O)C(=O)N[C@H](C(=O)N[C@@H](Cc1ccccc1)C(=O)NNC(=O)N[C@@H](CC(C)C)C(=O)N[C@H](CCCNC(=N)N)C(=O)N[C@@H](Cc1c[nH]c2ccccc12)C(N)=O)[C@@H](C)O) [des(1)-Ac-[D-Tyr2,D-Trp3,Thr5,AzaGly7,D-Arg9,Trp10]MS10]	12.8
Ac-[dY][Aib]NTF[azaGly]L[Arg(Me)]W-NH2 (SMILES CNC(=N)NCCC[C@H](NC(=O)[C@H](CC(C)C)NC(=O)NNC(=O)[C@H](Cc1ccccc1)NC(=O)[C@@H](NC(=O)[C@H](CC(N)=O)NC(=O)C(C)(C)NC(=O)[C@@H](Cc1ccc(O)cc1)NC(C)=O)[C@@H](C)O)C(=O)N[C@@H](Cc1c[nH]c2ccccc12)C(N)=O) [des(1)-Ac-[D-Tyr2,Aib3,Thr5,AzaGly7,Arg(Me)9,Trp10]MS10]	1.5
Ac-[dY][2Abz]NTF[azaGly]L[Arg(Me)]W-NH2 (SMILES CNC(=N)NCCC[C@H](NC(=O)[C@H](CC(C)C)NC(=O)NNC(=O)[C@H](Cc1ccccc1)NC(=O)[C@@H](NC(=O)[C@H](CC(N)=O)NC(=O)c1ccccc1NC(=O)[C@@H](Cc1ccc(O)cc1)NC(C)=O)[C@@H](C)O)C(=O)N[C@@H](Cc1c[nH]c2ccccc12)C(N)=O) [des(1)-Ac-[D-Tyr2,Abz(2)3,Thr5,AzaGly7,Arg(Me)9,Trp10]MS10]	3.2
Ac-[dY][Azetidine3carboxylic]NTF[azaGly]L[Arg(Me)]W-NH2 (SMILES CNC(=N)NCCC[C@H](NC(=O)[C@H](CC(C)C)NC(=O)NNC(=O)[C@H](Cc1ccccc1)NC(=O)[C@@H](NC(=O)[C@H](CC(N)=O)NC(=O)C1CN(C(=O)[C@@H](Cc2ccc(O)cc2)NC(C)=O)C1)[C@@H](C)O)C(=O)N[C@@H](Cc1c[nH]c2ccccc12)C(N)=O) [des(1)-Ac-[D-Tyr2,Aze(3)3,Thr5,AzaGly7,Arg(Me)9,Trp10]MS10]	4.1
Ac-[dY][Sar]NTF[azaGly]L[Arg(Me)]W-NH2 (SMILES CNC(=N)NCCC[C@H](NC(=O)[C@H](CC(C)C)NC(=O)NNC(=O)[C@H](Cc1ccccc1)NC(=O)[C@@H](NC(=O)[C@H](CC(N)=O)NC(=O)CN(C)C(=O)[C@@H](Cc1ccc(O)cc1)NC(C)=O)[C@@H](C)O)C(=O)N[C@@H](Cc1c[nH]c2ccccc12)C(N)=O) [des(1)-Ac-[D-Tyr2,Sar3,Thr5,AzaGly7,Arg(Me)9,Trp10]MS10]	8.8
Ac-[dY][dNMeA]NTF[azaGly]L[Arg(Me)]W-NH2 (SMILES CNC(=N)NCCC[C@H](NC(=O)[C@H](CC(C)C)NC(=O)NNC(=O)[C@H](Cc1ccccc1)NC(=O)[C@@H](NC(=O)[C@H](CC(N)=O)NC(=O)[C@@H](C)N(C)C(=O)[C@@H](Cc1ccc(O)cc1)NC(C)=O)[C@@H](C)O)C(=O)N[C@@H](Cc1c[nH]c2ccccc12)C(N)=O) [des(1)-Ac-[D-Tyr2,D-NMeAla3,Thr5,AzaGly7,Arg(Me)9,Trp10]MS10]	3.2
